Values quoted from earlier work, collected in article PMC7564214.
pKd: −log10 of the molar value.

Target: LC3B (Homo sapiens) (UniProt Q9GZQ8)

- pKd: 4.00
Substance: TRIM5α (from UniProt Q9C035)
